Like-named read-outs stand apart in the source and are kept apart here.
Target: HLA-A2.1 molecules on T2 (TAP-, HLA-A2.1+) cells (human)
Test: T2 cells, peptide binding by surface HLA-A2.1 (BB7.2) flow cytometry; ratio of concentrations reaching 20% of maximal binding

Binder	RA (relative affinity) (ratio to HIV 1 rt.476 reference peptide)	RA (relative affinity) (ratio to HIV 1 rt.476 reference peptide) (remark: other sources report otherwise)
VLPDVFIRC (modifications not checked) [NA17-A nt38-64 epitopic peptide]	1.52	–
RMPEAAPPV [p53 65-73 epitopic peptide]	–	0.91

— patent US7345026
